± gives the uncertainty stated by the source.
Assay: self-splicing fitness, log relative to wild type (ln ratio); higher = more splicing; Tetrahymena group I intron in knt gene, E. coli kanamycin selection, DiMSum; sequences stand for … in CUCUCU…GGAGGGAAAAGUUAUCAGGCAUGCACCUGGUAGCUAGUCUUUAAACCAAUAGAUUGCAUCGGUUUAAAAGGCAAGACCGUCAAAUUGCGGGAAAGGGGUCAACAGCCGUUCAGUACCAAGUCUCAGGGGAAACUUUGAGAUGGCCUUGCAAAGGGUAUGGUAAUAAGCUGACGGACAUGGUCCUAACCACGCAGCCAAGUCCUAAGUCAACAGAUCUUCUGUUGAUAUGGAUGCAGUUCACAGACUAAAUGUCGGUCGGGGAAGAUGUAUUCUUCUCAUAAGAUAUAGUCGGACCUCUCCUUAAUGGGAGCUAGCGGAUGAAGUGAUGCAACACUGGAGCCGCUGGGAACUAAUUUGUAUGCGAAAGUAUAUUGAUUAGUUUUGGAGUACUCGUGGUCG
Outline: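 DiMSum derived fitness as the error-weighted combination of fold changes across replicates, kanamycin versus no kanamycin, normalised to wild type. E. coli BL21(DE3) held the library, which randomised all eight P1ex-region intron nucleotides within the knt kanamycin-resistance gene on pET-22b(+). Six replicate transformations grew overnight at 37°C or 30°C on LB agar with or without 25 μg/mL kanamycin, also containing 100 μg/mL carbenicillin, 50 μM IPTG and 0.2% rhamnose, and pooled colonies were amplicon-sequenced on an Illumina HiSeq 2500.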

Sequence | self-splicing fitness (ln) (30 °C) | self-splicing fitness (ln) (37 °C)
GAGCAGCAAUAUUACGUUUG | -2.84 ± 0.11 | -1.31 ± 0.11
ACGAAGCAAUAUUACGUUCU | -1.24 ± 0.07 | -0.898 ± 0.081
CCGUAGCAAUAUUACGCGUG | -2.72 ± 0.15 | -1.22 ± 0.12
ACUAAGCAAUAUUACGCAGU | -4.72 ± 0.28 | -3.25 ± 0.46
GUUGAGCAAUAUUACGAUCG | -1.18 ± 0.39 | 
ACAGAGCAAUAUUACGAUUG | -2.95 ± 0.26 | -3.3 ± 0.3
UUCCAGCAAUAUUACGGGCA | -0.578 ± 0.067 | 0.454 ± 0.089
CUAGAGCAAUAUUACGUCAG | -0.419 ± 0.08 | -0.271 ± 0.11
GGGCAGCAAUAUUACGUAAU | -0.917 ± 0.063 | 0.209 ± 0.085
GGGAAGCAAUAUUACGCAUU | -2.94 ± 0.34 | -1.53 ± 0.44
CCCCAGCAAUAUUACGAUUU | -3.43 ± 0.14 | -3.51 ± 0.25
GUAUAGCAAUAUUACGAUUC | 0.127 ± 0.1 | 0.598 ± 0.13
UCGAAGCAAUAUUACGCAUU | -1.97 ± 0.19 | -2.46 ± 0.26
UAGUAGCAAUAUUACGGUGG | -3.44 ± 0.27 | -2.09 ± 0.2
CCGUAGCAAUAUUACGCCCG | -0.871 ± 0.15 | -0.0634 ± 0.21
AUUUAGCAAUAUUACGUAGA | -2.08 ± 0.15 | -2.48 ± 0.23
GCGGAGCAAUAUUACGAUGG | -1.16 ± 0.26 | -1.02 ± 0.32
UGUCAGCAAUAUUACGCGGU | -3.09 ± 0.26 | -2.2 ± 0.29
ACGAAGCAAUAUUACGACGA | -1.04 ± 0.097 | -0.181 ± 0.12
CGAUAGCAAUAUUACGACCA | -0.39 ± 0.46 | -0.619 ± 0.33
GUUGAGCAAUAUUACGCGGG | -3.17 ± 0.15 | -2.51 ± 0.26
UAAUAGCAAUAUUACGAUCA | -0.744 ± 0.085 | 0.387 ± 0.1
ACUCAGCAAUAUUACGUUUU | -2.1 ± 0.048 | -0.817 ± 0.061
GUAAAGCAAUAUUACGCUUU | -3.46 ± 0.23 | -1.8 ± 0.27
AAUCAGCAAUAUUACGAUCG | -0.0405 ± 0.063 | 0.448 ± 0.084

Sequence | self-splicing fitness (ln) (30 °C) | self-splicing fitness (ln) (37 °C)
CGUGAGCAAUAUUACGAGCG | -3.57 ± 0.3 | -2.52 ± 0.29
UCUAAGCAAUAUUACGUCGA | -0.33 ± 0.088 | 0.0723 ± 0.11
AGUAAGCAAUAUUACGACAG | -2.95 ± 0.2 | -1.94 ± 0.22
UCUCAGCAAUAUUACGUGGU | -1.7 ± 0.1 | -2.48 ± 0.16
CCCUAGCAAUAUUACGGACA | -2.94 ± 0.32 | -2.62 ± 0.24
CCUGAGCAAUAUUACGUAGU | -3.18 ± 0.14 | -1.21 ± 0.14
UGCUAGCAAUAUUACGCCAU | -3.15 ± 0.28 | -2.65 ± 0.35
ACGAAGCAAUAUUACGCGAC | -3.14 ± 0.2 | -1.78 ± 0.19
AGUCAGCAAUAUUACGACGC | 0.144 ± 0.1 | 0.499 ± 0.13
UAUCAGCAAUAUUACGACGU | -1.22 ± 0.094 | -0.199 ± 0.11
AGGAAGCAAUAUUACGCUGG | -3.46 ± 0.38 | -1.08 ± 0.27
UGCUAGCAAUAUUACGAAGG | -2.13 ± 0.16 | -0.838 ± 0.34
ACCUAGCAAUAUUACGGUGU | -2.97 ± 0.1 | -1.93 ± 0.12
ACCUAGCAAUAUUACGUUCG | -1.5 ± 0.078 | -0.444 ± 0.096
UCGGAGCAAUAUUACGGCCG | -1.49 ± 0.31 | 
GGCAAGCAAUAUUACGGGGC | -2.62 ± 0.42 | -1.5 ± 0.32
ACUUAGCAAUAUUACGAGUG | -1.17 ± 0.12 | -1.58 ± 0.13
UCAAAGCAAUAUUACGUGAA | -1.42 ± 0.069 | -1.06 ± 0.1
AGUGAGCAAUAUUACGGCGG | -1.83 ± 0.31 | -2.29 ± 0.26
UCGUAGCAAUAUUACGCCCA | -0.576 ± 0.14 | 0.129 ± 0.19
CCGAAGCAAUAUUACGUCGC | -3.18 ± 0.26 | -3.07 ± 0.34
CGGUAGCAAUAUUACGGGAC | -3.63 ± 0.47 | -4.61 ± 0.46
ACGAAGCAAUAUUACGCCGC | -3.56 ± 0.21 | -2.02 ± 0.24
GGUGAGCAAUAUUACGGACG | -0.0602 ± 0.16 | 0.806 ± 0.32
AUCAAGCAAUAUUACGCGCG | -1.01 ± 0.094 | -0.0559 ± 0.13

Sequence | self-splicing fitness (ln) (30 °C) | self-splicing fitness (ln) (37 °C)
CUAGAGCAAUAUUACGAUAA | -2.85 ± 0.21 | -1.3 ± 0.23
UGACAGCAAUAUUACGACUC | -2.23 ± 0.17 | -0.483 ± 0.17
GCGCAGCAAUAUUACGUCUA | -0.763 ± 0.07 | -0.321 ± 0.079
AACAAGCAAUAUUACGGGAA | -1.57 ± 0.097 | -1.86 ± 0.13
GCCGAGCAAUAUUACGCUGC | -4.22 ± 0.36 | -2.81 ± 0.25
UCCUAGCAAUAUUACGUAAG | -3.31 ± 0.24 | -2.4 ± 0.23
UCAGAGCAAUAUUACGUCAC | -2.51 ± 0.18 | 
AGGAAGCAAUAUUACGUGGC |  | -3.3 ± 0.43
GCCUAGCAAUAUUACGUUGU | -0.142 ± 0.04 | 0.252 ± 0.055
GGUUAGCAAUAUUACGGCAA | 0.963 ± 0.39 | -0.363 ± 0.27
AUGAAGCAAUAUUACGACCC | -1.6 ± 0.22 | 
CGGGAGCAAUAUUACGUAGA | -3.97 ± 0.47 | -1.96 ± 0.26
AACGAGCAAUAUUACGCCGU | -3.6 ± 0.18 | -1.88 ± 0.16
UGAAAGCAAUAUUACGAGGU | -4.07 ± 0.31 | -1.72 ± 0.23
CAAUAGCAAUAUUACGCUAA | -3.58 ± 0.43 | -2.05 ± 0.2
ACGAAGCAAUAUUACGGUAC | -5.02 ± 0.38 | -2.24 ± 0.17
GGUUAGCAAUAUUACGAGCA | -0.943 ± 0.1 | -0.264 ± 0.1
CUUCAGCAAUAUUACGUUCA | -3.63 ± 0.26 | -2.04 ± 0.23
AAUAAGCAAUAUUACGUUCC | -1.96 ± 0.14 | -1.48 ± 0.18
UAAUAGCAAUAUUACGGAUG | -1.58 ± 0.08 | -0.737 ± 0.087
AAGGAGCAAUAUUACGAAAU | -2.26 ± 0.14 | -3 ± 0.29
CCGGAGCAAUAUUACGAAAU | -3.2 ± 0.27 | -0.842 ± 0.37
AAUCAGCAAUAUUACGUAUA | -0.574 ± 0.066 | 0.0946 ± 0.087
CGUCAGCAAUAUUACGCUUA | -2.18 ± 0.23 | -1.14 ± 0.17
UCAGAGCAAUAUUACGCAAA | -1.85 ± 0.23 | -2.03 ± 0.46

Sequence | self-splicing fitness (ln) (30 °C) | self-splicing fitness (ln) (37 °C)
GGCUAGCAAUAUUACGCUUG | -3.03 ± 0.19 | -2.19 ± 0.19
CUGGAGCAAUAUUACGAUUA | -2.56 ± 0.27 | -1.07 ± 0.26
ACUGAGCAAUAUUACGUUUG | -3.97 ± 0.21 | -2.53 ± 0.18
AGCGAGCAAUAUUACGACGU | -1.74 ± 0.083 | -0.339 ± 0.11
GCUUAGCAAUAUUACGAACU | -0.838 ± 0.08 | 0.0658 ± 0.1
GUGGAGCAAUAUUACGCGGA |  | -1.85 ± 0.24
UACAAGCAAUAUUACGAGCG | -0.155 ± 0.074 | -0.0756 ± 0.099
GCGAAGCAAUAUUACGGGUG | -1.77 ± 0.085 | -1.88 ± 0.1
UUCGAGCAAUAUUACGAACU | -3.28 ± 0.32 | -0.827 ± 0.44
GCGCAGCAAUAUUACGGGUA | -2.4 ± 0.13 | -1.59 ± 0.1
AUCCAGCAAUAUUACGCACC | -1.19 ± 0.13 | 0.657 ± 0.17
CUUAAGCAAUAUUACGAGAA | -2.01 ± 0.34 | -2.91 ± 0.47
UUAAAGCAAUAUUACGAGGU | -4.09 ± 0.24 | -3.3 ± 0.27
GCGCAGCAAUAUUACGCUCA | -0.576 ± 0.14 | 0.238 ± 0.16
GUCGAGCAAUAUUACGGUUC | -2.27 ± 0.14 | -1.73 ± 0.17
AUUGAGCAAUAUUACGGACA | -2.68 ± 0.31 | 
UUACAGCAAUAUUACGUUAU | -1.91 ± 0.087 | -1.98 ± 0.14
CACGAGCAAUAUUACGGAGU | -4.82 ± 0.32 | -3.69 ± 0.24
ACCGAGCAAUAUUACGCUGU | -3.32 ± 0.17 | -0.834 ± 0.13
AACCAGCAAUAUUACGCCCU | 0.309 ± 0.089 | -0.381 ± 0.13
GAAUAGCAAUAUUACGUCUC | -0.581 ± 0.11 | -0.137 ± 0.16
ACAGAGCAAUAUUACGCAGU |  | -2.62 ± 0.4
